Reference: patent publication US20250250357A1

Legend:
[1] = molecular target: human MSLN-R3-3 polypeptide (human); assay: ELISA, coated antigen, antibody 1 nM
[2] = molecular target: human MSLN-R3-3 polypeptide (human); assay: ELISA, coated antigen, antibody 0.1 nM
[3] = molecular target: human MSLN-R3-3 polypeptide (human); assay: ELISA, coated antigen, antibody 0.01 nM
[4] = molecular target: human MSLN-R3-3 polypeptide (human); assay: ELISA, coated antigen, antibody 0.001 nM
[5] = molecular target: human MSLN-R3-3 polypeptide (human); assay: ELISA, coated antigen, antibody 0.0001 nM
[6] = molecular target: human MSLN-R3-3 polypeptide (human); assay: ELISA, coated antigen, no antibody (blank)
[7] = molecular target: human MSLN-R3-rFc protein (human) (UniProt Q13421); assay: ELISA, antibody 1 nM
[8] = molecular target: human MSLN-R3-rFc protein (human) (UniProt Q13421); assay: ELISA, antibody 4 nM
[9] = molecular target: human MSLN-R3-rFc protein (human) (UniProt Q13421); assay: ELISA, antibody 20 nM
[10] = molecular target: human MSLN-R3-rFc protein (human) (UniProt Q13421); assay: ELISA, antibody 100 nM
[11] = molecular target: human MSLN-R3-rFc protein (human) (UniProt Q13421); assay: ELISA, antibody 0.0064 nM
[12] = molecular target: human MSLN-R3-rFc protein (human) (UniProt Q13421); assay: ELISA, antibody 0.032 nM
[13] = molecular target: human MSLN-FL-his protein (human) (UniProt Q13421); assay: ELISA, antibody 0.0001 nM
[14] = molecular target: human MSLN protein endogenously expressed on OVCAR3 tumor cells (human) (UniProt Q13421); assay: FACS on OVCAR3 cells
[15] = molecular target: human MSLN full-length protein (NCBI: AAH09272.1) expressed on HEK293T-hMSLN-B8 cells (human) (UniProt Q13421); assay: FACS on HEK293T-hMSLN-B8 cells
[16] = molecular target: human MSLN-R3 protein (Met487-Ser606 of NCBI AAH09272.1) expressed on HEK293T-hMSLN-R3 cells (human) (UniProt Q13421); assay: FACS on HEK293T-hMSLN-R3 cells
[17] = molecular target: monkey MSLN full-length protein (NCBI: XP_028696439.1) expressed on HEK293T-monkey MSLN cells (monkey); assay: FACS on HEK293T-monkey MSLN cells

human MSLN-R3-rFc protein (human), sequence (Q13421 495-606): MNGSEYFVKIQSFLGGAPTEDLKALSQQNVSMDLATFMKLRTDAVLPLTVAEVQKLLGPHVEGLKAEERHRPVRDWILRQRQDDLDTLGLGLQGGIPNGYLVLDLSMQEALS
human MSLN full-length protein (NCBI: AAH09272.1) expressed on HEK293T-hMSLN-B8 cells (human), sequence (Q13421 other isoform, or with tags, fused parts or gaps limits assumed): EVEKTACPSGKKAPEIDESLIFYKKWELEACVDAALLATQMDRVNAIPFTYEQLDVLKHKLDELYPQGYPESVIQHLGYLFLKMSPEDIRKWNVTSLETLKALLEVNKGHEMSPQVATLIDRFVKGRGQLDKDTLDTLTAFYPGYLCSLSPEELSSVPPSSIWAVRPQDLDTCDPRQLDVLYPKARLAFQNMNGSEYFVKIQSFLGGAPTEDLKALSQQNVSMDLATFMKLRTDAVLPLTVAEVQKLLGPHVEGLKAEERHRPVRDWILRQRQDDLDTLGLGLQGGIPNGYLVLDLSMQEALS
human MSLN protein endogenously expressed on OVCAR3 tumor cells (human), sequence (Q13421 other isoform, or with tags, fused parts or gaps): as the sequence (Q13421 other isoform, or with tags, fused parts or gaps limits assumed) above, with P14R counted along it
human MSLN-R3 protein (Met487-Ser606 of NCBI AAH09272.1) expressed on HEK293T-hMSLN-R3 cells (human), sequence (Q13421 495-614): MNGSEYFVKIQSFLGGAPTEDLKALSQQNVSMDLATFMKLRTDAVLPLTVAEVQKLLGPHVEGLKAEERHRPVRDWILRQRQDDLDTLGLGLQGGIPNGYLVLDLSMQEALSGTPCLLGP
human MSLN-FL-his protein (human), sequence (Q13421 other isoform, or with tags, fused parts or gaps): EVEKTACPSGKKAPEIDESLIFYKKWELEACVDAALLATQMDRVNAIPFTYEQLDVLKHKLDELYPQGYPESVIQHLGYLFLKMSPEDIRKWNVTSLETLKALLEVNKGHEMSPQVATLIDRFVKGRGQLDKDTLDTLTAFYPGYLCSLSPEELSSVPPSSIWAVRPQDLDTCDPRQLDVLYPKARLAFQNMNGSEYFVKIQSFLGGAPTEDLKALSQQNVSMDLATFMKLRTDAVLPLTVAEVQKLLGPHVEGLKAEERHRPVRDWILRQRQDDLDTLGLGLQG

Substance: anti-hel-hIgG1 (negative control antibody against hen egg lysozyme)
- OD450 [1]: 0.06
- OD450 [2]: 0.06
- OD450 [3]: 0.06
- OD450 [4]: 0.06
- OD450 [5]: 0.07
- OD450 [6]: 0.07

Substance: anti-human MSLN antibody (purchased from Acro, Cat. No. MSN-M30)
- OD450 nm [7]: 0.11
- OD450 nm [8]: 0.23
- OD450 nm [9]: 0.86
- OD450 nm [10]: 1.11
- OD450 nm [11]: 0.16

Substance: hIgG1 (human IgG1 control antibody)
- OD450 nm [7]: 0.09
- OD450 nm [8]: 0.15
- OD450 nm [10]: 0.21
- OD450 nm [12]: 0.11
- OD450 nm [13]: 0.04

Substance: hIgG1 negative control antibody (anti-hel-hIgG1, against hen egg lysozyme)
- Maximum mean fluorescence intensity [14]: 122
- Maximum mean fluorescence intensity [15]: 267
- Maximum mean fluorescence intensity [16]: 102
- Maximum mean fluorescence intensity [17]: 102
